For assay [1], the target named is T1, human CEACAM5 (carcinoembryonic antigen, CEA) on cells (human, UniProt P06731 35-685).
T1 construct: endogenous on MKN45 gastric adenocarcinoma cells; full-length cDNA stably transfected in the CHO-K1 clones; also called huCEACAM5; MKN45 cells
T1 sequence: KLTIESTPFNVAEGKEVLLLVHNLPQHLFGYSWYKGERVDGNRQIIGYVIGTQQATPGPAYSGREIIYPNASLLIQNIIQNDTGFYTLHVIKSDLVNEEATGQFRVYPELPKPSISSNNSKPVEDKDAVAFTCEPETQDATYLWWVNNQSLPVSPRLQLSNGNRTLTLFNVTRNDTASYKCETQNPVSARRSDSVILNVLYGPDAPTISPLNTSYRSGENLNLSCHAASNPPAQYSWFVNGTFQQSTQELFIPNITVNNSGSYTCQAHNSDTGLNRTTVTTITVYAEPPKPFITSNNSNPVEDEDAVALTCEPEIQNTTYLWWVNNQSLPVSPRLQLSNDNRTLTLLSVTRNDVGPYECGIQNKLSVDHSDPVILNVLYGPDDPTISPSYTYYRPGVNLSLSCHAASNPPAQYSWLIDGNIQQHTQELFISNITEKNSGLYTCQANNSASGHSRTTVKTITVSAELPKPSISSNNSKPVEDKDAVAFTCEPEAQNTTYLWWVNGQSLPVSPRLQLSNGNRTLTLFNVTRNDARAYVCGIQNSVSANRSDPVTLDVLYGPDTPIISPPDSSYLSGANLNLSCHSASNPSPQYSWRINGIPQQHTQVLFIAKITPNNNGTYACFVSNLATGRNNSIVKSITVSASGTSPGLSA
In words: flow cytometry, MKN45 cells. Also noted: AUC: unit not given beside the values. On the technique in general: A flow cytometer gives signals particle by particle.

In assay [2] the target is T1, human CEACAM5 (carcinoembryonic …). In words: flow cytometry, MKN-45 cells, goat F(ab')2 anti-human Fcγ-PE, gMFI.

The source of these data is patent US20220267464A1 (Hoffmann-La Roche, published 2022).

Changes are numbered by the printed parent chain. Names and notes keep the numbering of the source.

B1: P1AE0096-001 MFE23 huIgG1 PG LALA (parental) (antibody, V domains shown)
VH: QVKLQQSGAELVRSGTSVKLSCTASGFNIKDSYMHWLRQGPEQGLEWIGWIDPENGDTEYAPKFQGKATFTTDTSSNTAYLQLSSLTSEDTAVYYCNEGTPTGPYYFDYWGQGTTVTVSS
VL: ENVLTQSPAIMSASPGEKVTITCSASSSVSYMHWFQQKPGTSPKLWIYSTSNLASGVPARFSGSGSGTSYSLTISRMEAEDAATYYCQQRSSYPLTFGAGTKLELK
notes: murine variable domains on huIgG1 P329G L234A L235A; also called parental murine MFE23 huIgG1 P329G LALA antibody
A word on the EC50: it is the concentration giving half of the maximal effect. Take B1: in assay [1], the AUC was 83500 and the EC50 came to 9.36 nM.

B2: P1AE3113 (antibody, IgG1, V domains shown)
VH: QVQLVQSGAEVKKPGASVKVSCKASGFNIKDSYMHWVRQAPGQGLEWMGWIDPENGDTEYAPKFQGRVTMTTDTSISTAYMELSRLRSDDTAVYYCNEGTPTGPYYFDYWGQGTLVTVSS
VL: EIQMTQSPSSLSASVGDRVTITCRASQSISSYMHWYQQKPGKAPKLLIYSTSNLASGVPSRFSGSGSGTDFTLTISSLQPEDFATYYCQQRSSYPLTFGGGTKLEIK
notes: huIgG1 P329G LALA; also called MFE-H24 / MFE-L26
With B2, the binding result in assay [2] was “no binding (tested: about 300 nM)”. In assay [1], the AUC was found to be 757.

B3: P1AE3107 (antibody, IgG1, V domains shown)
VH: B2 VH
VL: EIQMTQSPSSLSASVGDRVTITCRASSSVPYMHWYQQKPGKAPKLLIYSTSNLASGVPSRFSGSGSGTDFTLTISSVQPEDFATYYCQQRSSYPLTFGGGTKLEIK
notes: huIgG1 P329G LALA; also called MFE-H24 / MFE-L27; huMFE23-L27-H24
In assay [1], B3 registered an AUC of 91200 and an EC50 of 5.83 nM.

B4: P1AE3094 (antibody, IgG1, V domains shown)
VH: B2 VH with F27Y, N28T, I29F
VL: B3 VL with Y35L, N52S, A54Q
notes: huIgG1 P329G LALA; also called MFE-H25 / MFE-L29
In assay [1], B4 yielded an AUC of 6910 and an EC50 of 47.6 nM.

B5: P1AE3100 (antibody, IgG1, V domains shown)
VH: B2 VH with F27Y, N28T, I29F
VL: B3 VL with Y35L
notes: huIgG1 P329G LALA; also called MFE-H25 / MFE-L28; huMFE23-L28-H25
In assay [1], B5 gave an AUC of 74100 and an EC50 of 9.89 nM.

B6: P1AE3110 (antibody, IgG1, V domains shown)
VH: B2 VH with N97A, E98R
VL: B2 VL
notes: huIgG1 P329G LALA; also called MFE-H27 / MFE-L26
For B6, the binding result in assay [2] is recorded as “no binding (tested: about 300 nM)”. The molecule further came in with an AUC in assay [1] of 547.

B7: P1AE3096 (antibody, IgG1, V domains shown)
VH: B2 VH with A16S, M70I, T74E, I76T, R85S, D89E
VL: B3 VL with Y35L
notes: huIgG1 P329G LALA; also called MFE-H29 / MFE-L28
Consider B7, for which, in assay [1], the AUC came out at 87800 and the midpoint of the response, the EC50, lay at 10.5 nM.

B8: P1AE3115 (antibody, IgG1, V domains shown)
VH: B2 VH with T72R
VL: B3 VL with P30S, V77L
notes: huIgG1 P329G LALA; also called MFE-H28 / MFE-L25
In assay [1], B8 displayed an AUC of 10200 and an EC50 of 20.7 nM.

B9: P1AE3119 (antibody, IgG1, V domains shown)
VH: B2 VH
VL: B3 VL with P30S, V77L
notes: huIgG1 P329G LALA; also called MFE-H24 / MFE-L25
As to B9, in assay [1], the AUC amounted to 10300 and the EC50 amounted to 41.9 nM.

B10: P1AE3109 (antibody, IgG1, V domains shown)
VH: B2 VH with T72R
VL: B2 VL
notes: huIgG1 P329G LALA; also called MFE-H28 / MFE-L26
As for B10, the binding result in assay [2] is “no binding (tested: about 300 nM)”. In addition, the AUC in assay [1] is 695.

B11: P1AE3114 (antibody, IgG1, V domains shown)
VH: B2 VH with A16S, M70I, T74E, I76T, R85S, D89E
VL: B3 VL with P30S, V77L
notes: huIgG1 P329G LALA; also called MFE-H29 / MFE-L25
In assay [1], B11 returned an AUC of 12800 and an EC50 of 30.6 nM.

B12: P1AE3108 (antibody, IgG1, V domains shown)
VH: B2 VH with A16S, M70I, T74E, I76T, R85S, D89E
VL: B2 VL
notes: huIgG1 P329G LALA; also called MFE-H29 / MFE-L26
As to B12, in assay [2], the binding result is given as “no binding (tested: about 300 nM)”. The molecule also gave an AUC in assay [1] of 2090.

B13: P1AE3121 (antibody, IgG1, V domains shown)
VH: B2 VH with T72R
VL: B3 VL with E1D, P30S, V77L
notes: huIgG1 P329G LALA; also called MFE-H28 / MFE-L24
In assay [1], B13 showed an AUC of 17500 and an EC50 of 17.1 nM.

B14: P1AE3120 (antibody, IgG1, V domains shown)
VH: B2 VH with A16S, M70I, T74E, I76T, R85S, D89E
VL: B3 VL with E1D, P30S, V77L
notes: huIgG1 P329G LALA; also called MFE-H29 / MFE-L24
For the molecule B14, in assay [1], the AUC turned out to be 24200 and it took 12.4 nM to reach a half-maximal effect (EC50).

B15: P1AE3111 (antibody, IgG1, V domains shown)
VH: B2 VH with D57G, E59N, P62Q
VL: B2 VL
notes: huIgG1 P329G LALA; also called MFE-H26 / MFE-L26
Take B15: the binding result in assay [2] is “no binding (tested: about 300 nM)”. This molecule showed an AUC in assay [1] of 578.

B16: P1AE3097 (antibody, IgG1, V domains shown)
VH: B2 VH with T72R
VL: B3 VL with Y35L
notes: huIgG1 P329G LALA; also called MFE-H28 / MFE-L28; huMFE23-L28-H28
Consider B16, for which, in assay [1], the AUC is 98700 and the EC50 came to 6.45 nM.

B17: P1AE3099 (antibody, IgG1, V domains shown)
VH: B2 VH with D57G, E59N, P62Q
VL: B3 VL with Y35L
notes: huIgG1 P329G LALA; also called MFE-H26 / MFE-L28
For the molecule B17, in assay [1], the AUC came out at 95300 and a half-maximal response (EC50) required 10.2 nM.

B18: P1AE3105 (antibody, IgG1, V domains shown)
VH: B2 VH with D57G, E59N, P62Q
VL: B3 VL
notes: huIgG1 P329G LALA; also called MFE-H26 / MFE-L27; huMFE23-L27-H26
For the molecule B18, in assay [1], the AUC was found to be 55900 and a half-maximal effect (EC50) was put at 7.92 nM.

B19: P1AE3101 (antibody, IgG1, V domains shown)
VH: B2 VH
VL: B3 VL with Y35L
notes: huIgG1 P329G LALA; also called MFE-H24 / MFE-L28; huMFE23-L28-H24
Turning to B19, in assay [1], the AUC stood at 104000 and the EC50 is 6.58 nM.

B20: P1AE3103 (antibody, IgG1, V domains shown)
VH: B2 VH with T72R
VL: B3 VL
notes: huIgG1 P329G LALA; also called MFE-H28 / MFE-L27; huMFE23-L27-H28
In assay [1], B20 came in with an AUC of 92400 and an EC50 of 5.88 nM.

B21: P1AE3102 (antibody, IgG1, V domains shown)
VH: B2 VH with A16S, M70I, T74E, I76T, R85S, D89E
VL: B3 VL
notes: huIgG1 P329G LALA; also called MFE-H29 / MFE-L27; huMFE23-L27-H29
In assay [1], B21 returned an AUC of 91500 and an EC50 of 5.41 nM.

B22: P1AE3090 (antibody, IgG1, V domains shown)
VH: B2 VH with A16S, M70I, T74E, I76T, R85S, D89E
VL: B3 VL with Y35L, N52S, A54Q
notes: huIgG1 P329G LALA; also called MFE-H29 / MFE-L29
In the case of B22, in assay [1], the AUC was determined as 61800 and the midpoint of the response, the EC50, lay at 42 nM.

B23: P1AE3091 (antibody, IgG1, V domains shown)
VH: B2 VH with T72R
VL: B3 VL with Y35L, N52S, A54Q
notes: huIgG1 P329G LALA; also called MFE-H28 / MFE-L29
In assay [1], B23 returned an AUC of 83100 and an EC50 of 14.6 nM.

B24: P1AE3095 (antibody, IgG1, V domains shown)
VH: B2 VH
VL: B3 VL with Y35L, N52S, A54Q
notes: huIgG1 P329G LALA; also called MFE-H24 / MFE-L29
In the case of B24, in assay [1], the AUC is 84900 and the EC50 was 11.1 nM.

B25: P1AE3093 (antibody, IgG1, V domains shown)
VH: B2 VH with D57G, E59N, P62Q
VL: B3 VL with Y35L, N52S, A54Q
notes: huIgG1 P329G LALA; also called MFE-H26 / MFE-L29
In assay [1], B25 gave an AUC of 68100 and an EC50 of 16.1 nM.
